Measured values reported in article PMC3493575, “Elongation Factor 1 alpha1 and Genes Associated with Usher Syndromes Are Downstream Targets of GBX2”.

Key:
GBX2 full-length = GBX2 full-length (mouse, UniProt P48031 1-348); experiment: EMSA; supershift with anti-GBX2; 940 pM probe, 720 nM GBX2; 2X binding buffer: 20 mM Tris-HCl pH 7.4, 50 mM KCl, 1 mM DTT, 10% glycerol, 200 ug/mL BSA, 2.2 ug/mL poly dI/dC; 30 min, 25 C; 6% native PAGE, Tris-glycine; conditions: protein: recombinant; tags: V5-6xHis (pET101/D-TOPO); label: 32P end label; blunt
GBX2 full-length, sequence (P48031 whole entry): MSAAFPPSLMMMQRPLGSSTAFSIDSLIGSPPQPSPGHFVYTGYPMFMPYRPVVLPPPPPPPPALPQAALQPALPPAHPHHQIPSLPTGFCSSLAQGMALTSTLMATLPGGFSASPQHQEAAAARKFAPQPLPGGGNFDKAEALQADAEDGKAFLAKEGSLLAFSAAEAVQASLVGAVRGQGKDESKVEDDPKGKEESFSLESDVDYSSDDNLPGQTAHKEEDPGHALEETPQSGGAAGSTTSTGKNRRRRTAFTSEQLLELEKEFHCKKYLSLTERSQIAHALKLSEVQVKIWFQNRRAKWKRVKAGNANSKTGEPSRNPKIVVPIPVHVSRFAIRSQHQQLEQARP

GBX2ΔHD = GBX2ΔHD (mouse, UniProt P48031 1-94); experiment: EMSA; 940 pM probe, 720 nM GBX2; 2X binding buffer: 20 mM Tris-HCl pH 7.4, 50 mM KCl, 1 mM DTT, 10% glycerol, 200 ug/mL BSA, 2.2 ug/mL poly dI/dC; 30 min, 25 C; 6% native PAGE, Tris-glycine; conditions: protein: recombinant; tags: V5-6xHis (pET101/D-TOPO); label: 32P end label; blunt
GBX2ΔHD, sequence (P48031 1-94, stated change not applied): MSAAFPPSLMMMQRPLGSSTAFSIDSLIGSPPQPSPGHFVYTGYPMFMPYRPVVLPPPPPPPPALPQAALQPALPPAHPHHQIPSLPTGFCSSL

B1: PCDH15 100-mer probe (dsDNA)
DNA 1: TTACAATTTCATTTGTACAGGTAAGTATATACTTTTCTTTCATTGTTTCTTTTTAATATTCCCATTAGTGGGAATTCAGGCTATCTGTCTCTTACCTATC
DNA 2: GATAGGTAAGAGACAGATAGCCTGAATTCCCACTAATGGGAATATTAAAAAGAAACAATGAAAGAAAAGTATATACTTACCTGTACAAATGAAATTGTAA
binding result (GBX2 full-length): binds
binding result (GBX2ΔHD): no binding
